Where two headings read alike, the source gives them in different places.
Experiments:
Assay in all cases: cell-based or functional assay
[1] = target: T1, human IL-4R on cells (HEK-Blue IL-4 cells, TF-1 cells) (human, UniProt P24394 26-825)
[2] = target: T1, human IL-4R on cells (HEK-Blue IL-4 …); remark: listed apart in the source
[3] = target: T1, human IL-4R on cells (HEK-Blue IL-4 …); remark: listed apart in the source
[4] = target: T1, human IL-4R on cells (HEK-Blue IL-4 …); remark: listed apart in the source

| Binder | Inhibiting the proliferation of TF-1 cells by IL-4 (IC50) [1] [µg/mL] | blocking of the binding of HEK293-Blue IL-4 cell (to IL-4) (IC50) [1] [µg/mL] | Inhibiting the proliferation of TF-1 cells by IL-4 (IC50) [2] [µg/mL] | blocking the binding of HEK293-Blue IL-4 cell (to IL-4) (IC50) [2] [µg/mL] | Inhibiting the proliferation of TF-1 cell by IL-4 (IC50) [3] [µg/mL] | blocking the binding of HEK293-Blue IL-4 cell (to IL-4) (IC50) [3] [µg/mL] | Inhibiting the proliferation of TF-1 cell by IL-13 (IC50) [4] [µg/mL] | Inhibiting the proliferation of TF-1 cells by IL-4 (IC50) [4] [µg/mL] | blocking the binding of HEK293-Blue cells (with IL-4) (IC50) [4] [µg/mL] | blocking the binding of HEK293-Blue cells (with IL-13) (IC50) [4] [µg/mL] |
| --- | --- | --- | --- | --- | --- | --- | --- | --- | --- | --- |
| Dupilumab (antibody, V domains shown) VH: EVQLVESGGGLEQPGGSLRLSCAGSGFTFRDYAMTWVRQAPGKGLEWVSSISGSGGNTYYADSVKGRFTISRDNSKNTLYLQMNSLRAEDTAVYYCAKDRLSITIRPRYYGLDVWGQGTTVTVSS VL: DIVMTQSPLSLPVTPGEPASISCRSSQSLLYSIGYNYLDWYLQKSGQSPQLLIYLGSNRASGVPDRFSGSGSGTDFTLKISRVEAEDVGFYYCMQALQTPYTFGQGTKLEIKR | 0.102 | 0.00507 | 0.207 | 0.00324 | 0.491 | 0.000667 | 0.0181 | 0.101 | 0.0125 | 0.0148 |
| human-mouse chimeric antibody 7B10-C (antibody, V domains shown) VH: QVQLQQPGTELLKPGASVSLSCKASGYTFTSYWMHWVKQRPGQGLEWIGLIHPNSDTTKFSENFKTRATLTIDKSSSTAYMKLSSLTSEDSAVYYCAKSKIITTIVARHWYFDVWGTGTTVTVSS VL: DIVLTQSPPSLAVSLGQRATISCKASQSVDYGGDSYMNWYQQKLGQPPKVLIYAASNLESGIPARFSGSGSGTDFTLNIHPVEEEDVATYYCQHSNENPPTFGGGTKLEIK | – | – | 0.0464 | 0.00903 | – | – | – | – | – | – |
| mouse monoclonal antibody 7B10 (antibody, V domains shown) VH: QVQLQQPGTELLKPGASVSLSCKASGYTFTSYWMHWVKQRPGQGLEWIGLIHPNSDTTKFSENFKTRATLTIDKSSSTAYMKLSSLTSEDSAVYYCAKSKIITTIVARHWYFDVWGTGTTVTVSS VL: DIVLTQSPPSLAVSLGQRATISCKASQSVDYGGDSYMNWYQQKLGQPPKVLIYAASNLESGIPARFSGSGSGTDFTLNIHPVEEEDVATYYCQHSNENPPTFGGGTKLEIK | 0.418 | 0.0798 | – | – | – | – | – | – | – | – |
| humanized antibody hu7B10 (with VH-b heavy chain and VL-b light chain) (antibody, human IgG1, kappa, V domains shown) VH: EVQLVQSGAEVKKPGASVKVSCKASGYTFTSYWMHWVRQAPGQGLEWMGLIHPNSDTTKFSENFKTRVTMTIDTSISTAYMELSRLRSDDTAVYYCAKSKIITTIVARHWYFDVWGQGTTVTVSS VL: DIVLTQTPLSLSVTPGQPASISCKASQSVDYGGDSYMNWYLQKPGQPPQLLIYAASNLESGVPDRFSGSGSGTDFTLKISRVEAEDVGVYYCQHSNENPPTFGGGTKVEIKR | – | – | – | – | 0.112 | 0.00687 | – | – | – | – |
| murine monoclonal antibody 25G7 (antibody, V domains shown) VH: EVQLVESGGGLVKPGGSLKLSCAASGFTFSDYGMHWVRQAPEKGLEWVAFISSGSSIIYYADIVKGRSTISRDNAKNTLFLQMTSLRSEDTAMYYCTRGNKRGFFDYWGQGTILTVSS VL: QIVLTQSPALMSASPGEKVTMTCNASSSVSYMYWYQRKPRSSPKPWIYLTSNLASGVPVRFSGSGSGTSYSLTISSMEAEDAATYYCQQWRSNPPMLTFGSGTKLEVK | 0.0513 | 0.000975 | – | – | – | – | – | – | – | – |
| affinity-matured humanized antibody hu25G7-A (antibody, human IgG4 S228P, kappa, V domains shown) VH: EVQLVESGGGLVQPGGSLRLSCAASGFTFSDYGMHWVRQAPGKGLEWVAFISSGSSIIYYADIVKGRSTISRDNAKNTLYLQMNSLRAEDTAVYYCTRGNKRGFFDYWGQGTLVTVSS VL: EIVLTQSPATLSLSPGERATLSCRASSSVPYMYWYQQKPGQAPRLLIYLTSNLASGIPARFSGSGSGTDFTLTISSLEPEDFAVYYCQQWRAYPPMLTFGGGTKVEIKR | – | – | – | – | – | – | 0.0132 | 0.0837 | 0.00649 | 0.01 |
| human-mouse chimeric antibody 25G7-C (antibody, V domains shown) VH: EVQLVESGGGLVKPGGSLKLSCAASGFTFSDYGMHWVRQAPEKGLEWVAFISSGSSIIYYADIVKGRSTISRDNAKNTLFLQMTSLRSEDTAMYYCTRGNKRGFFDYWGQGTILTVSS VL: QIVLTQSPALMSASPGEKVTMTCNASSSVSYMYWYQRKPRSSPKPWIYLTSNLASGVPVRFSGSGSGTSYSLTISSMEAEDAATYYCQQWRSNPPMLTFGSGTKLEVK | – | – | 0.0203 | 0.00202 | – | – | – | – | – | – |
| affinity-matured humanized antibody hu25G7-B (antibody, human IgG4 S228P, kappa, V domains shown) VH: EVQLVESGGGLVQPGGSLRLSCAASGFTFSDYGMHWVRQAPGKGLEWVAFISSGSSIIYYADIVKGRSTISRDNAKNTLYLQMNSLRAEDTAVYYCTRGNKRGFFDYWGQGTLVTVSS VL: EIVLTQSPATLSLSPGERATLSCRASPGVPPLAWYQQKPGQAPRLLIYLASSRPSGIPARFSGSGSGTDFTLTISSLEPEDFAVYYCQQWRSNPPMLTFGGGTKVEIKR | – | – | – | – | – | – | 0.0137 | 0.051 | 0.0066 | 0.00838 |
| humanized antibody hu25G7 (with VH-c heavy chain and VL-a light chain) (antibody, human IgG4 S228P, kappa, V domains shown) VH: EVQLVESGGGLVQPGGSLRLSCAASGFTFSDYGMHWVRQAPGKGLEWVAFISSGSSIIYYADIVKGRSTISRDNAKNSLYLQMNSLRAEDTAVYYCTRGNKRGFFDYWGQGTLVTVSS VL: EIVLTQSPATLSLSPGERATLSCNASSSVSYMYWYQQKPGQAPRLLIYLTSNLASGIPARFSGSGSGTDFTLTISSLEPEDFAVYYCQQWRSNPPMLTFGGGTKVEIKR | – | – | – | – | 0.0296 | 0.000943 | – | – | – | – |
